Laboratory results taken from the Human Domainome abundance scans (Beltran et al. 2025).
± gives the uncertainty stated by the source.

B1: Retinoic acid receptor beta, residues 85 to 161; numbered along this chain, P10826 (parent)
chain: YKPCFVCQDKSSGYHYGVSACEGCKGFFRRSIQKNMIYTCHRDKNCVINKVTRNRCQYCRLQKCFEVGMSKESVRND

Variants of: B1
Assay: abundance fitness (aPCA) (normalised: wild type 0, dead -1); higher = more abundant; growth selection in yeast, the domain comes from the species named
Settings: Homo sapiens

| Variant | abundance fitness |
| --- | --- |
| D43N | -0.072 ± 0.073 |
| D43Q | -0.019 ± 0.074 |
| D43T | 0.007 ± 0.055 |
| D43C | -0.436 ± 0.082 |
| D43W | -0.169 ± 0.044 |
| D43I | -0.038 ± 0.087 |
| D43L | -0.066 ± 0.037 |
| D43Y | -0.103 ± 0.09 |
| D43F | -0.014 ± 0.071 |
| D43R | -0.024 ± 0.033 |
| D43H | -0.32 ± 0.13 |
| D43S | -0.034 ± 0.045 |
| D43A | 0.026 ± 0.037 |
| D43E | 0.07 ± 0.044 |
| D43G | 0.012 ± 0.035 |
| D43K | -0.001 ± 0.05 |
| N45V | 0.039 ± 0.065 |
| N45L | 0.02 ± 0.045 |
| N45E | 0.049 ± 0.11 |
| N45W | -0.302 ± 0.12 |
| N45K | 0.053 ± 0.069 |
| N45R | 0.059 ± 0.054 |
| N45Y | -0.477 ± 0.14 |
| N45F | -0.251 ± 0.088 |

| Variant | abundance fitness |
| --- | --- |
| N45A | 0.068 ± 0.057 |
| N45M | -0.035 ± 0.087 |
| N45G | -0.044 ± 0.082 |
| N45Q | 0.078 ± 0.068 |
| N45D | -0.151 ± 0.13 |
| N45C | 0.02 ± 0.079 |
| N45S | -0.057 ± 0.053 |
| N45I | 0.054 ± 0.066 |
| N45P | -0.025 ± 0.051 |
| N45H | -0.021 ± 0.059 |
| N49A | -0.284 ± 0.044 |
| N49G | -0.255 ± 0.05 |
| N49K | -0.345 ± 0.062 |
| N49W | -0.327 ± 0.071 |
| N49C | -0.598 ± 0.11 |
| N49Y | -0.37 ± 0.091 |
| N49H | -0.372 ± 0.059 |
| N49T | 0.017 ± 0.042 |
| N49Q | -0.328 ± 0.057 |
| N49F | -0.368 ± 0.13 |
| N49L | -0.218 ± 0.055 |
| N49S | -0.116 ± 0.036 |
| N49P | -0.431 ± 0.066 |
| N49I | -0.239 ± 0.1 |

| Variant | abundance fitness |
| --- | --- |
| N49D | 0.235 ± 0.051 |
| N49E | 0.003 ± 0.055 |
| N49R | -0.43 ± 0.05 |
| N49V | -0.546 ± 0.092 |
| C46D | -0.352 ± 0.13 |
| C46N | -0.704 ± 0.15 |
| C46H | -0.475 ± 0.13 |
| C46L | -0.668 ± 0.076 |
| C46G | -0.123 ± 0.1 |
| C46T | -0.53 ± 0.083 |
| C46V | -0.737 ± 0.12 |
| C46F | -0.988 ± 0.23 |
| C46S | -0.562 ± 0.074 |
| C46W | -0.681 ± 0.15 |
| C46I | -0.711 ± 0.17 |
| C46Q | -1.01 ± 0.23 |
| C46R | -0.767 ± 0.12 |
| C46E | -0.474 ± 0.13 |
| C46K | -1 ± 0.26 |
| C46P | -0.94 ± 0.15 |
| T52S | 0.032 ± 0.042 |
| T52L | 0.038 ± 0.037 |
| T52M | 0.02 ± 0.056 |
| T52K | -0.015 ± 0.07 |

| Variant | abundance fitness |
| --- | --- |
| T52G | -0.029 ± 0.03 |
| T52E | 0.123 ± 0.043 |
| T52N | 0.023 ± 0.078 |
| T52W | -0.047 ± 0.04 |
| T52V | -0.021 ± 0.037 |
| T52R | -0.745 ± 0.076 |
| T52H | -0.397 ± 0.16 |
| T52Q | 0.027 ± 0.053 |
| T52C | -0.451 ± 0.08 |
| T52F | -0.188 ± 0.084 |
| T52I | -0.053 ± 0.079 |
| T52D | 0.046 ± 0.053 |
| M36V | 0.072 ± 0.039 |
| M36S | -0.002 ± 0.053 |
| M36T | 0.051 ± 0.065 |
| M36W | -0.127 ± 0.052 |
| H41Q | 0.029 ± 0.061 |
| H41N | -0.121 ± 0.087 |
| H41E | 0.131 ± 0.037 |
| H41L | -0.077 ± 0.038 |
| H41M | 0.081 ± 0.047 |
| H41R | -0.101 ± 0.036 |
| H41T | 0.129 ± 0.052 |
| H41A | -0.006 ± 0.039 |

| Variant | abundance fitness |
| --- | --- |
| H41W | 0.016 ± 0.038 |
| H41I | -0.064 ± 0.11 |
| H41S | -0.089 ± 0.042 |
| H41Y | -0.178 ± 0.099 |
| H41C | -0.157 ± 0.066 |
| H41G | -0.024 ± 0.03 |
| H41P | -0.044 ± 0.055 |
| H41D | 0.051 ± 0.053 |
| H41K | -0.103 ± 0.073 |
| I48T | -0.161 ± 0.055 |
| I48A | -0.531 ± 0.068 |
| I48S | -0.48 ± 0.061 |
| I48H | -0.505 ± 0.47 |
| I48M | 0.042 ± 0.059 |
| I48F | -0.078 ± 0.055 |
| I48V | -0.065 ± 0.04 |
| I48G | -0.605 ± 0.11 |
| I48C | -0.72 ± 0.19 |
| I48N | -0.376 ± 0.17 |
| I48W | -0.647 ± 0.13 |
| I48L | -0.096 ± 0.035 |
| I48P | -0.417 ± 0.07 |
| K50D | 0.225 ± 0.12 |
| K50V | 0.208 ± 0.06 |

| Variant | abundance fitness |
| --- | --- |
| K50I | 0.244 ± 0.074 |
| K50G | 0.153 ± 0.064 |
| K50T | 0.125 ± 0.058 |
| K50A | 0.145 ± 0.052 |
| K50R | 0.153 ± 0.051 |
| K50N | 0.021 ± 0.085 |
| K50Y | 0.126 ± 0.08 |
| K50W | 0.25 ± 0.078 |
| K50H | 0.094 ± 0.059 |
| K50P | 0.09 ± 0.044 |
| K50Q | 0.158 ± 0.043 |
| K50S | 0.231 ± 0.044 |
| K50M | 0.124 ± 0.069 |
| K50C | -0.218 ± 0.11 |
| R42I | -0.114 ± 0.097 |
| R42E | 0.07 ± 0.055 |
| R42C | 0.145 ± 0.06 |
| R42W | 0.15 ± 0.043 |
| R42T | -0.016 ± 0.069 |
| R42H | -0.412 ± 0.14 |
| R42V | 0.177 ± 0.034 |
| R42K | 0.067 ± 0.064 |
| R42D | -0.047 ± 0.074 |
| R42M | 0.228 ± 0.049 |

| Variant | abundance fitness |
| --- | --- |
| R42A | 0.203 ± 0.038 |
| R42N | 0.115 ± 0.14 |
| R42Q | 0.121 ± 0.062 |
| R42P | -1.01 ± 0.33 |
| R42Y | 0.033 ± 0.09 |
| R42S | 0.014 ± 0.049 |
| V47A | 0.058 ± 0.042 |
| V47F | -0.11 ± 0.057 |
| V47W | -0.048 ± 0.048 |
| V47C | 0.003 ± 0.044 |
| V47D | 0.168 ± 0.063 |
| V47H | -0.077 ± 0.049 |
| V47N | -0.103 ± 0.066 |
| V47S | 0.024 ± 0.033 |
| V47G | -0.096 ± 0.043 |
| V47Y | 0.107 ± 0.053 |
| V47T | 0.056 ± 0.038 |
| V47I | -0.082 ± 0.044 |
| V47R | -0.075 ± 0.037 |
| V47P | 0.043 ± 0.041 |
| V47M | 0.075 ± 0.047 |
| V47Q | 0.026 ± 0.049 |
| V47L | 0.03 ± 0.033 |
